In experiment [1] the target is Robo1 protein (ORIGEN, Art. No.: TP327713) (UniProt Q9Y6N7). Kind of experiment: SPR (BIAcore), Robo1 bound to CM5 chip; column headed 'Kd(nM)'.
For experiment [2] the target is unchanged. As to the kind of experiment: SPR (BIAcore), Robo1 bound to CM5 chip. For orientation: SPR reads the build-up and loss of mass on a sensor chip optically.
For experiment [3] the target is unchanged. Kind of experiment: ELISA, Robo1 coated at 1 µg/ml, detection with anti-HSA-HRP; stability test, samples 'after treatment' (treatment not described); after treatment (stability test), binding ELISA on coated Robo1. (In general: An ELISA detects its analyte on a solid surface through an enzyme-linked reagent.)
Experiment [4] deals with T1, Robo1 protein (ORIGEN, Art. No.: TP327713) (UniProt Q9Y6N7-5 1-1606, limits assumed).
T1 construct: Bought recombinant protein; also called receptor Robo1; receptor protein Robo1
T1 sequence (Q9Y6N7 other isoform, or with tags, fused parts or gaps limits assumed): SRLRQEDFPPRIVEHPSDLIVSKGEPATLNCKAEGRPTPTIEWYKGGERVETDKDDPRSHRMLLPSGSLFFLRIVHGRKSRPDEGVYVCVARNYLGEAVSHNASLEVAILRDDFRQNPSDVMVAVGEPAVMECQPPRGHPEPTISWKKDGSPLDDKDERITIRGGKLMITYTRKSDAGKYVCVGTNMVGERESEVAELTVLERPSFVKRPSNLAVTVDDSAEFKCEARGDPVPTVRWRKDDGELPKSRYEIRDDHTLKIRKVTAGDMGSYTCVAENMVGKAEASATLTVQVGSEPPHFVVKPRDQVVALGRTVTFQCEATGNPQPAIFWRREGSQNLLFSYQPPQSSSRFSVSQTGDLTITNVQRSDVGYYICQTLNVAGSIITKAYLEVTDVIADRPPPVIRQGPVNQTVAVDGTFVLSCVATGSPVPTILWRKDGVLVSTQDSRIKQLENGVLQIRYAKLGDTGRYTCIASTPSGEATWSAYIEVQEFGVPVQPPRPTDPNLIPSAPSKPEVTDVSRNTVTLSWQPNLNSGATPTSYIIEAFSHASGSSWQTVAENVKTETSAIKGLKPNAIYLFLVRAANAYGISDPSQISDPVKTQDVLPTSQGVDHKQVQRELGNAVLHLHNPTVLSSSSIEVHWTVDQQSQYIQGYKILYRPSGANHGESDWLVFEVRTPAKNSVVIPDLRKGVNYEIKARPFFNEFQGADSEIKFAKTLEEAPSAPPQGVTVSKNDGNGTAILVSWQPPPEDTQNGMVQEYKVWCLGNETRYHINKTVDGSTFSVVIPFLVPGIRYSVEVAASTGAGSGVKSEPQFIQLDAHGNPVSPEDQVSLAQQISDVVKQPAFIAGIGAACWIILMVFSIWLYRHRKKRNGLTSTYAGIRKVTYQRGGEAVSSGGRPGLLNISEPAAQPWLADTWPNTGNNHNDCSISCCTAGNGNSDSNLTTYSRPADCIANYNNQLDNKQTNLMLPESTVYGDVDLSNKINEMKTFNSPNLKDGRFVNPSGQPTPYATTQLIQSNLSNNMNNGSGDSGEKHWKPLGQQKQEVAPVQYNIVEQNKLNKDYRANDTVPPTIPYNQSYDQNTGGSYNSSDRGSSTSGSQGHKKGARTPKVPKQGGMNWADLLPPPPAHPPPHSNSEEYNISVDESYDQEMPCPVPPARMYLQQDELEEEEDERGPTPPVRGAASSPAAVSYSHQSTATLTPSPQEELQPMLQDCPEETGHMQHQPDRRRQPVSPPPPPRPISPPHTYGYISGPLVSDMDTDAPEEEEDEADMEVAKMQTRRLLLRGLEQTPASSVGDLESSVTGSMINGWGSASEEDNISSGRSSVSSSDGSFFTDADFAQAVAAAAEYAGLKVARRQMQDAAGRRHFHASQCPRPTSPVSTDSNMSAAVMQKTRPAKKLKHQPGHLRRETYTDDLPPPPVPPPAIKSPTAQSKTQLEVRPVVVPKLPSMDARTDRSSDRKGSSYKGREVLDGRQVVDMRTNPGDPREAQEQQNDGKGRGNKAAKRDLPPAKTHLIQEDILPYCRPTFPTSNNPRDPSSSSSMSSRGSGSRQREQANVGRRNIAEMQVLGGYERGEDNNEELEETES
Kind of experiment: SPR (BIAcore), Robo1 bound to CM5 chip. The method, then: (§1) The affinity constant between the protein and Robo1 protein was detected by SPR (Surface Plasmon resonance BIAcore 200) method. […] Kinetic measurements were performed according to the method referred by Canziani et al. (2004, Anal. Biochem. 325: 301-307). Furthermore, the affinity of the Slit2N protein (Slit2N is a protein having a molecular weight of about 120 kDa at the N-terminus of the Slit2 protein) to Robo1 protein was also determined by the same method.

Experiment [5] concerns the target T1, Robo1 protein (ORIGEN, Art. No.: …). Kind of experiment: SPR (BIAcore), Robo1 bound to CM5 chip; column headed 'Kd(nM)'. The method, then: as §1
The target is the same in experiment [6]. Kind of experiment: SPR (BIAcore), Robo1 bound to CM5 chip; column headed 'KD(M)', by arithmetic the dissociation rate; exponent doubtful. The method, then:
as §1

One may read the Kd as the equilibrium constant for the complex coming apart. For orientation: kon means the second-order rate constant of association. Low readings indicate slow association, high ones fast association. For orientation: EC50 means the concentration at which the effect is half-maximal. High values mean a need for much substance, low ones an effect from little substance. Broadly, the koff is the first-order rate constant of dissociation. A high value points to a short-lived complex.

Robo1 protein (ORIGEN, Art. No.: TP327713) (UniProt Q9Y6N7), sequence (Q9Y6N7 other isoform, or with tags, fused parts or gaps limits assumed): as above

The molecule “Slit2D2-HSA (as disclosed in Patent Application PCT/CN2015/092079) (from UniProt O94813 271-479; P02768 25-609)” showed a Kd in experiment [1] of 2.8 nM. This molecule displayed an on-rate (kon) in experiment [2] of 177000 M⁻¹ s⁻¹. The EC50 in experiment [3] came to 215 nM.

B1: Slit2N protein (ligand, UniProt O94813 31-1121, looked up)
chain: QCSCSGSTVDCHGLALRSVPRNIPRNTERLDLNGNNITRITKTDFAGLRHLRVLQLMENKISTIERGAFQDLKELERLRLNRNHLQLFPELLFLGTAKLYRLDLSENQIQAIPRKAFRGAVDIKNLQLDYNQISCIEDGAFRALRDLEVLTLNNNNITRLSVASFNHMPKLRTFRLHSNNLYCDCHLAWLSDWLRQRPRVGLYTQCMGPSHLRGHNVAEVQKREFVCSGHQSFMAPSCSVLHCPAACTCSNNIVDCRGKGLTEIPTNLPETITEIRLEQNTIKVIPPGAFSPYKKLRRIDLSNNQISELAPDAFQGLRSLNSLVLYGNKITELPKSLFEGLFSLQLLLLNANKINCLRVDAFQDLHNLNLLSLYDNKLQTIAKGTFSPLRAIQTMHLAQNPFICDCHLKWLADYLHTNPIETSGARCTSPRRLANKRIGQIKSKKFRCSAKEQYFIPGTEDYRSKLSGDCFADLACPEKCRCEGTTVDCSNQKLNKIPEHIPQYTAELRLNNNEFTVLEATGIFKKLPQLRKINFSNNKITDIEEGAFEGASGVNEILLTSNRLENVQHKMFKGLESLKTLMLRSNRITCVGNDSFIGLSSVRLLSLYDNQITTVAPGAFDTLHSLSTLNLLANPFNCNCYLAWLGEWLRKKRIVTGNPRCQKPYFLKEIPIQDVAIQDFTCDDGNDDNSCSPLSRCPTECTCLDTVVRCSNKGLKVLPKGIPRDVTELYLDGNQFTLVPKELSNYKHLTLIDLSNNRISTLSNQSFSNMTQLLTLILSYNRLRCIPPRTFDGLKSLRLLSLHGNDISVVPEGAFNDLSALSHLAIGANPLYCDCNMQWLSDWVKSEYKEPGIARCAGPGEMADKLLLTTPSKKFTCQGPVDVNILAKCNPCLSNPCKNDGTCNSDPVDFYRCTCPYGFKGQDCDVPIHACISNPCKHGGTCHLKEGEEDGFWCICADGFEGENCEVNVDDCEDNDCENNSTCVDGINNYTCLCPPEYTGELCEEKLDFCAQDLNPCQHDSKCILTPKGFKCDCTPGYVGEHCDIDFDDCQDNKCKNGAHCTDAVNGYTCICPEGYSGLFCEFSPPMVLPR
The molecule B1 registered a kon in experiment [4] of 744000 M⁻¹ s⁻¹. In experiment [5], this molecule yielded a Kd of 4.5 nM. In experiment [6], this molecule gave a koff of 0.00339 s⁻¹.

The values are drawn from patent publication US20190309050A1 (SUZHOU THINKING POWER BIOTECHNOLOGY, published 2019).
